Target: T1, MEKK3^43–127 (MEKK3–PB1) (UniProt Q99759 43-127)
T1 chain: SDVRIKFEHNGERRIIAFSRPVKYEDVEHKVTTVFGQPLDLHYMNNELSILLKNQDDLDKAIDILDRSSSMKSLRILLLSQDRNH
Experiment: ITC

Kd: 13.3 nM
B1: NBR1^1–85 (human NBR1–PB1) (domain or fragment)
chain: MEPQVTLNVTFKNEIQSFLVSDPENTTWADIEAMVKVSFDLNTIQIKYLDEENEEVSINSQGEYEEALKMAVKQGNQLQMQVHEG

From PMC6978347 (2020)
